Assay [1] has as its target T1, human CD33 on primary human monocyte-derived dendritic cells (human, UniProt P20138 18-364). The assay is described as follows: cell-based or functional assay.
Assay [2] deals with T2, human CD33 (human, UniProt P20138 18-259, limits assumed).
T2 construct: Human CD33 immobilized on the BLI sensor tip or the BIAcore C1 chip; also called Siglec-3
The assay is described as follows: BLI (ForteBio), Fab 100 nM on immobilized CD33; kon/koff columns printed 3 rows too low, assigned by koff/kon = printed KD of AB-63.4. As for the experimental part: (§1) The affinities (KD) of the humanized antibodies for human CD33 were measured for each antibody by BioLayer Interferometry in a ForteBio assay according to standard techniques (Estep et al. (2013) MAbs 5(2): 270-8). […] The assay was carried out at room temperature.
(§2) The affinities of AB-H14 and its affinity-matured variants (Table 15) and AB-H63 and its affinity-matured variants (Table 16), for human CD33 were measured by Fortebio assay according to the method described in Example 1 above.
(In general: In BLI a coated tip is dipped into the sample, and binding shifts an interference pattern.)

The target of assay [3] is T2, human CD33. The assay is described as follows: BLI (ForteBio), Fab 100 nM on immobilized CD33.
Assay [4] addresses T2, human CD33. The assay is described as follows: BLI (ForteBio), Fab 100 nM on immobilized CD33; kon/koff columns printed 3 rows too low, assigned by koff/kon = printed KD of AB-63.5. The procedure:
as §1, §2

The target in assay [5] is T2, human CD33. The assay is described as follows: BLI (ForteBio), Fab 100 nM on immobilized CD33; kon/koff columns printed 3 rows too low, assigned by koff/kon = printed KD of AB-63.9. As for the experimental part: as §1, §2
The target in assay [6] is T2, human CD33. The assay is described as follows: BLI (ForteBio), Fab 100 nM on immobilized CD33; kon/koff columns printed 3 rows too low, assigned by koff/kon = printed KD of AB-63.8. As for the experimental part: as §1, §2
Assay [7] concerns the target T2, human CD33. The assay is described as follows: BLI (ForteBio), Fab 100 nM on immobilized CD33. The procedure:
as §1
The affinity parameters of two of the antibodies, 64.1.2 and 64.1.8, were measured in a separate experiment by BIAcore, where they were directly compared to the parental antibody, AB-64.1, the parental humanized antibody, AB-H64, and the Chimeric Ab.
This is another data set of the same source.

Assay [8] concerns the target T2, human CD33. The assay can be described thus: ligand-blocking red blood cell solid adhesion assay: antibody pre-incubated on plate-bound CD33-Fc, then binding of red blood cells (sialic acid-containing CD33 ligands) read as peroxidase activity (TMB, 450 nm), relative to no antibody; blocked ligand: CD33 ligands on red blood cells. As for the experimental part:
The affinity matured antibody, AB-64.1 and two of its variants, AB-64.1.2 and AB-64.1.8, were evaluated for their ability to compete with CD33 ligand for binding to CD33 using a red blood cell (RBC) solid adhesion assay, according to standard protocols (Kelm, et al. Current Biology, 1994). Red blood cells are highly decorated with glycoproteins containing sialic acids; therefore the ability of an antibody to block RBC binding to immobilized CD33 was used to determine ligand interference. Briefly, 96-well Immunolon plates were coated overnight with 5 μg/mL CD33-Fc, then were washed with PBS and blocked for one hour with binding buffer (PBS containing 0.25% BSA and 1 mM CaCl₂)). CD33 antibodies were added and incubated for one hour at room temperature with gentle rocking. After removal of unbound antibody, RBCs were added to each well at 3.0×10⁶ cells/mL and incubated at room temperature for one hour. Unbound RBCs were then carefully removed by washing three times with PBS, after which water was added to each well to induce hypotonic lysis of bound RBCs. The plate was transferred to −80° C. for 10 minutes, followed by 37° C. for 15 minutes. Quantification of bound RBCs was measured as peroxidase activity by adding TMB, followed by the addition of 2N sulfuric acid to stop the reaction. Signal was detected at 450 nm. Data was calculated as a percentage of RBC binding to plate-bound CD33-Fc in the absence of antibody.

The target of assay [9] is T2, human CD33. The assay can be described thus: SPR (BIAcore), Fab over CD33 on C1 chip. The procedure: The affinity parameters for 10 of the 88 humanized antibodies (AB-H1, AB-H3, AB-H6, AB-H11, AB-H22, AB-H24, AB-H26, AB-H63, AB-H64, and AB-H71) were measured in a separate experiment by a more sensitive technique, surface plasmon resonance (BIAcore), and compared to Chimeric Ab and Chimeric Ab #2. BIAcore measurements were performed as follows: human CD33 was immobilized on the surface of a C1 chip, and Fabs were injected for 300 s to monitor association, followed by a 900 s flow in running buffer to monitor dissociation. The Fabs were measured at 5 concentrations: a high concentration of 27 nM and 3-fold serial dilutions.
In a separate experiment, as determined by the more sensitive BIAcore technique, affinity parameters of affinity matured antibodies derived from the humanized antibody AB-H64 were measured and were directly compared to that of the Chimeric Ab, according to the method described in Example 1 above.

In assay [10] the target is T2, human CD33. The assay is described as follows: BLI (ForteBio), Fab 100 nM on immobilized CD33. The procedure:
as §1
The affinities of AB-H64 and its variants (Table 5) for human CD33 were measured by Fortebio assay according to the method described in Example 1 above.
The source holds these as a separate data set.

In assay [11] the target is T1, human CD33 on primary human …. The assay can be described thus: cell-based or functional assay. The source holds these as a separate data set.
Assay [12] shares this target. The assay is described as follows: cell-based or functional assay. This is another data set of the same source.
For assay [13] the target is unchanged. The assay can be described thus: cell-based or functional assay. This is another data set of the same source.
Assay [14] addresses T2, human CD33. The assay is described as follows: BLI (ForteBio), Fab 100 nM on immobilized CD33; kon/koff columns printed 3 rows too low, assigned by koff/kon = printed KD of AB-63.6. As for the experimental part:
as §1, §2

Assay [15] deals with T1, human CD33 on primary human …. The assay is described as follows: cell-based or functional assay. This is another data set of the same source.
The target in assay [16] is T2, human CD33. The assay can be described thus: BLI (ForteBio), Fab 100 nM on immobilized CD33; kon/koff columns printed 3 rows too low, assigned by koff/kon = printed KD of AB-63.7. The procedure: as §1, §2

In general, koff refers to the first-order rate constant of dissociation. High values mean fast dissociation, low ones slow dissociation. In general, kon refers to the rate constant with which the complex forms. A high value points to faster complex formation. One may read the Kd as the free concentration of one partner at which half of the binding sites on the other are occupied at equilibrium, for simple one-to-one binding. Read a low Kd as tighter binding. The term EC50 denotes the concentration giving half of the maximal effect. Lower therefore signals a more potent agent.

Where a chain is given by its changes, count along the chain named. Where two headings read alike, the source gives them in different places.

T1 sequence (P20138 18-364): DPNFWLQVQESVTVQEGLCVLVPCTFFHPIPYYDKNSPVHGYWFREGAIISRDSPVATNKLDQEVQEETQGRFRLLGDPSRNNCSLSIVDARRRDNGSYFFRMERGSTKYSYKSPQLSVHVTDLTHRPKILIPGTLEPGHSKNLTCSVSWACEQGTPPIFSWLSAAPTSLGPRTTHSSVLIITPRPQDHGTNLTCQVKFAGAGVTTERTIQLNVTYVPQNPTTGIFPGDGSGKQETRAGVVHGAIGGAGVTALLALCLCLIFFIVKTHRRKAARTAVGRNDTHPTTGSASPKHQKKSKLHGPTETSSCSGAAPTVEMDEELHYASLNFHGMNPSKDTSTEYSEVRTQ
T2 sequence (P20138 18-259 limits assumed): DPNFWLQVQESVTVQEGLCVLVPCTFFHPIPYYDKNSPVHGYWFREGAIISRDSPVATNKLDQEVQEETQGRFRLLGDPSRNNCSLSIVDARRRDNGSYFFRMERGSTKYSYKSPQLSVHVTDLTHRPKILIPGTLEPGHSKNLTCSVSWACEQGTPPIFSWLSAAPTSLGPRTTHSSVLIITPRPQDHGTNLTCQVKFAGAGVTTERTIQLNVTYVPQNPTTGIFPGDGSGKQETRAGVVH

B1: AB-63.4 (antibody, V domains shown)
VH: QVQLVQSGAEVKKPGASVKVSCKASGYTFTDYNYHWVRQAPGQGLEWIGFIYPSNGITGYAQKFQGRVTMTVDTSTSTVYMELSSLRSEDTAVYYCARSTVDYFDYWGQGTLVTVSS
VL: DIVLTQSPDSLAVSLGERATINCRASQSVSTSTYSYMHWYQQKPGQPPKLLIKYASNLESGVPDRFSGSGSGTDFTLTISSLQAEDVAVYYCQHSWEIPLTFGQGTKLEIK
With B1, in assay [1], the “Maximal Downregulation (% CD33 remaining)” value was determined as 17.6% and the “Receptor downregulation (EC50)” value came out at 0.0691 nM. In the assay with human CD33 [2], this molecule yielded a koff of 0.000581 s⁻¹ and a kon of 809000 M⁻¹ s⁻¹. Besides, in the assay with human CD33 [3], the “Fold affinity improvement over parental Ab (AB-H63)” value was 3.79 fold and the dissociation constant (Kd) was 0.718 nM.

B2: AB-63.5 (antibody, V domains shown)
VH: B1 VH with Y34N, T100D
VL: B1 VL
Take B2: in assay [1], the “Maximal Downregulation (% CD33 remaining)” value was 16.5% and the “Receptor downregulation (EC50)” value is 0.0401 nM. In addition, in the assay with human CD33 [3], the “Fold affinity improvement over parental Ab (AB-H63)” value came out at 4.4 fold and binding was put at a Kd of 0.619 nM. Moreover, in the assay with human CD33 [4], the koff is 0.000524 s⁻¹ and the kon was found to be 847000 M⁻¹ s⁻¹.

B3: AB-63.9 (antibody, V domains shown)
VH: B1 VH with T28A, Y34L, T100D
VL: B1 VL with S28D, N57Y, Q93E
For the molecule B3, in the assay with human CD33 [5], the koff came to 0.0002 s⁻¹ and the kon came to 738000 M⁻¹ s⁻¹. In assay [1], the “Maximal Downregulation (% CD33 remaining)” value is 20.1% and the “Receptor downregulation (EC50)” value is 0.0407 nM. Also, in the assay with human CD33 [3], the “Fold affinity improvement over parental Ab (AB-H63)” value was determined as 10.1 fold and the dissociation constant Kd amounted to 0.271 nM.

B4: AB-63.8 (antibody, V domains shown)
VH: B1 VH with A16S, Y27V, G66D
VL: B1 VL with S28D
Regarding B4, in [1], the “Maximal Downregulation (% CD33 remaining)” value turned out to be 22% and the “Receptor downregulation (EC50)” value worked out at 0.0167 nM. In the assay with human CD33 [6], this molecule yielded a koff of 0.0002 s⁻¹ and a kon of 913000 M⁻¹ s⁻¹. In addition, in the assay with human CD33 [3], the “Fold affinity improvement over parental Ab (AB-H63)” value came to 12.4 fold and the Kd was found to be 0.219 nM.

B5: AB-64.1 (antibody, V domains shown)
VH: B1 VH with V20I, Y34L, V68A, M70L, T74N, V79A, T100D, V113L
VL: B1 VL
In the assay with human CD33 [7], B5 had a Kd of 0.499 nM. The EC50 in the assay with human CD33 [8] was found to be 0.71 nM. For the same molecule, in the assay with human CD33 [9], the “Fold Change to AB-H64” value was 20.4 fold, the “Fold Change to Chimeric Ab” value is 15.4 fold, the Kd was determined as 0.105 nM and the koff was 0.000485 s⁻¹. This molecule gave a kon with human CD33 [9] of 4.61e+06 M⁻¹ s⁻¹. For the same molecule, in the assay with human CD33 [10], the “Fold affinity improvement over parental Ab (AB-H64)” value is 3.23 fold and binding was characterised by a dissociation constant (Kd) of 0.885 nM. Further, in assay [11], the “Maximal Downregulation (% CD33 remaining)” value was determined as 27.3% and the “Receptor downregulation (EC50)” value came out at 0.0154 nM. Besides, in [12], the “Receptor downregulation (% remaining at 0.16 µg/mL antibody)” value stood at 37.2%. Also, the “Receptor downregulation (EC50)” value in assay [13] turned out to be 0.0185 nM.

B6: AB-63.6 (antibody, V domains shown)
VH: B1 VH with Y34L
VL: B1 VL with S28D
In the assay with human CD33 [14], B6 had an off-rate (koff) of 0.0002 s⁻¹ and a kon of 658000 M⁻¹ s⁻¹. Moreover, in assay [1], the “Maximal Downregulation (% CD33 remaining)” value came to 17.1% and the “Receptor downregulation (EC50)” value is 0.0463 nM. In the assay with human CD33 [3], the “Fold affinity improvement over parental Ab (AB-H63)” value was found to be 8.96 fold and binding was characterised by a dissociation constant (Kd) of 0.304 nM.

B7: AB-64.1.2 (antibody, V domains shown)
VH: B1 VH with V20I, Y34L, G56R, V68A, M70L, T74N, V79A, T100D, V113L
VL: B1 VL
notes: Variant of AB-64.1
As to B7, the Kd in the assay with human CD33 [7] amounted to 0.902 nM. Moreover, the EC50 in the assay with human CD33 [8] worked out at 0.55 nM. Besides, in the assay with human CD33 [9], the “Fold Change to AB-H64” value was 11.6 fold, the “Fold Change to Chimeric Ab” value was determined as 8.8 fold, the dissociation constant (Kd) came out at 0.185 nM and the koff amounted to 0.000507 s⁻¹. The molecule further displayed an association rate constant (kon) with human CD33 [9] of 2.74e+06 M⁻¹ s⁻¹. In assay [15], the “fold increase in potency in decreasing cell surface CD33, against AB-H64” value turned out to be 1.5 fold and the “fold increase in potency in decreasing cell surface CD33, against Chimeric Ab” value came out at 4.6 fold. Moreover, in assay [11], the “Maximal Downregulation (% CD33 remaining)” value is 24.8% and the “Receptor downregulation (EC50)” value was 0.0189 nM. Further, the “Receptor downregulation (% remaining at 0.16 µg/mL antibody)” value in assay [12] came to 32.4%.

B8: AB-63.7 (antibody, V domains shown)
VH: B1 VH with Y34L
VL: B1 VL with S28D, S56F, T101E
Regarding B8, in assay [1], the “Maximal Downregulation (% CD33 remaining)” value turned out to be 18.4% and the “Receptor downregulation (EC50)” value amounted to 0.0416 nM. In the assay with human CD33 [16], this molecule yielded a koff of 0.000546 s⁻¹ and a kon of 596000 M⁻¹ s⁻¹. Further, in the assay with human CD33 [3], the “Fold affinity improvement over parental Ab (AB-H63)” value turned out to be 2.97 fold and the Kd stood at 0.917 nM.

B9: AB-64.1.8 (antibody, V domains shown)
VH: B1 VH with V20I, Y34L, G56Q, V68A, M70L, T74N, T76A, V79A, T100D, V113L
VL: B1 VL
notes: Variant of AB-64.1
B9 had a Kd in the assay with human CD33 [7] of 0.802 nM. In the assay with human CD33 [8], the EC50 turned out to be 0.62 nM. In addition, in the assay with human CD33 [9], the “Fold Change to AB-H64” value came to 12.3 fold, the “Fold Change to Chimeric Ab” value was 9.29 fold, the equilibrium dissociation constant (Kd) came out at 0.175 nM and the koff is 0.000634 s⁻¹. Moreover, the kon with human CD33 [9] stood at 3.62e+06 M⁻¹ s⁻¹. Moreover, in [11], the “Maximal Downregulation (% CD33 remaining)” value stood at 30.1% and the “Receptor downregulation (EC50)” value was 0.0282 nM. Moreover, the “Receptor downregulation (% remaining at 0.16 µg/mL antibody)” value in assay [12] is 32.7%.

For the origin of these results see patent US20210139581A1 (Alector, published 2021).
